The RNAGym collection of RNA variant scans (doi:10.7554/elife.80360)

B1: HDV Ribozyme (parent)
chain: GGCCGGCAUGGUCCCAGCCUCCUCGCUGGCGCCGGCUGGGCAACAUUCCGAGGGGACCGUCCCCUCGGUAAUGGCGAAUGGGACCCA

Variants of: B1
Test: self-cleavage, relative activity (ratio to wild type); higher = more cleavage; co-transcriptional

| Variant | self-cleavage |
| --- | --- |
| A51U G74A | 0.288 |
| G25U G38A | 0.0511 |
| C18U G67C | 0.436 |
| G17U C48A | 0.538 |
| C14G U27C | 0.727 |
| U27G U47C | 0.383 |
| C15G A78G | 0 |
| C7A G25C | 0 |
| C30G G38U | 0.114 |
| C14A G80C | 0.104 |
| C57G U79A | 0.802 |
| U23C A78C | 0.231 |
| G34A U72A | 0.17 |
| U72A G73C | 0.628 |
| A16C C32G | 0.293 |
| C3A G40U | 0.256 |
| C22G G52A | 0.112 |
| U9G C21U | 0.332 |
| C48U G59A | 1.06 |
| A51C A78C | 0.277 |
| G39A G55A | 0.683 |
| C15G G31A | 0.138 |
| G25A U69A | 0.222 |
| C57U U69A | 1.15 |

| Variant | self-cleavage |
| --- | --- |
| C33A C57G | 0.332 |
| G50C G81C | 0.125 |
| G38A U72C | 0.108 |
| G10A U12C | 0.188 |
| G80U C85G | 0.191 |
| G35C A42G | 0.192 |
| U23C | 0.987 |
| G73A A77G | 0.386 |
| C32U C58U | 0.831 |
| U23A G28C | 0.142 |
| U27A A77G | 1.15 |
| C36A A43G | 0.277 |
| C4G A71U | 0.156 |
| C26A G28U | 0.222 |
| C33G C66A | 0.198 |
| A8G C14G | 0 |
| C22A G40A | 0.367 |
| G35U A45C | 0.0475 |
| G34A C66U | 0.0665 |
| U20C G74C | 0.107 |
| G17A C58G | 0.812 |
| C33U C41G | 0.372 |
| G40U U79C | 0.185 |
| C61U U79G | 1.15 |

| Variant | self-cleavage |
| --- | --- |
| A16G G31C | 0.208 |
| C4U U69G | 0.831 |
| C7U G10A | 0.425 |
| C24G U60C | 0.277 |
| U65G A87U | 1.12 |
| C32U A43U | 0.491 |
| G59U A87C | 1.17 |
| C21G G67U | 0.0723 |
| C19A U47C | 0.148 |
| G31U U46A | 0.0755 |
| G31A G52U | 0.531 |
| A8C C21G | 0.0594 |
| C13A G53A | 0.229 |
| C15G C57G | 0.692 |
| U46C G67A | 0.671 |
| A56G C61U | 1.08 |
| U46A G76U | 0.954 |
| A70G G73C | 0.356 |
| G76U A77U | 0.868 |
| C3G U60A | 0.772 |
| A16U C85G | 1.03 |
| C41U G68A | 0.743 |
| C3A G6A | 0.0931 |
| U9A U46G | 1.08 |

| Variant | self-cleavage |
| --- | --- |
| G73U G80U | 0.124 |
| C19G C48G | 0.148 |
| G50C C61A | 0.865 |
| C7A G29A | 0.0804 |
| C4U G6A | 0.532 |
| C21U C49G | 0.102 |
| A43C C57A | 0.785 |
| G67U | 0.999 |
| C15G G73U | 0.147 |
| G25A U65C | 0.208 |
| C49G C84A | 0.652 |
| C49G C84G | 0.297 |
| G67A C84U | 0.658 |
| U72A C75A | 0.222 |
| G17C C66G | 0.32 |
| C63A C84U | 0.717 |
| U12G G34C | 0.172 |
| G39U A77G | 0.564 |
| C21U G67A | 0.158 |
| G53U C84A | 0.754 |
| U79G A83U | 0.122 |
| C15A C57U | 0.8 |
| C19G G31U | 0.0723 |
| A16C U65C | 0.256 |

| Variant | self-cleavage |
| --- | --- |
| A16C C48U | 0.677 |
| C15G C66U | 0.573 |
| A78U U79C | 0.375 |
| G17A C48U | 0.785 |
| C13A C19G | 0.102 |
| G35C G67A | 0.148 |
| G59U U60C | 1.37 |
| U60G G81U | 0.123 |
| U47C C75A | 0.214 |
| A45G U65C | 1.01 |
| A16G C26A | 0.867 |
| C4A G82U | 0.089 |
| U20G C84G | 0.119 |
| C22A G68A | 0.298 |
| C15A | 0.698 |
| C48G A70G | 0.772 |
| G1A U72A | 0.246 |
| C19A G80U | 0.0513 |
| A16G G74A | 0.404 |
| C19A C24U | 0.0674 |
| C41U U65G | 0.976 |
| U9C G35C | 0.519 |
| C19A G76C | 0.102 |
| C21A G80C | 0.0496 |

| Variant | self-cleavage |
| --- | --- |
| C19G C26G | 0 |
| G68A G73C | 0.257 |
| G55A A83C | 0.731 |
| A43G U47C | 0.748 |
| C62U C66U | 0.953 |
| C49A C62U | 0.933 |
| G10C C64U | 0.892 |
| G2C C24A | 0.0791 |
| C64A C66U | 0.567 |
| C26A U60A | 1.02 |
| C13U G38C | 0.0554 |
| C22A U69C | 0.393 |
| G6A C57A | 0.966 |
| A56U G73A | 0.752 |
| G38A U79G | 0.151 |
| G28C G38A | 0.0415 |
| U46A U47C | 0.532 |
| C49U A83C | 0.615 |
| C18A U46A | 0.0923 |
| C48U C86G | 1.14 |
| C48U C58A | 1.06 |
| U20G C58U | 0.237 |
| G29A G82A | 0.109 |
| U20G U37C | 0.237 |

| Variant | self-cleavage |
| --- | --- |
| C44A A87G | 0.649 |
| C36G G67A | 0.157 |
| C24G G52C | 0.172 |
| G59U C63U | 1.04 |
| G6U C48U | 0.696 |
| U9A C61A | 1.16 |
| C7A U65G | 0.246 |
| C44A A70U | 0.571 |
| A56G U79C | 0.242 |
| U23A U37A | 0.0997 |
| U9A C75U | 0.145 |
| C21G G39C | 0.554 |
| G59U | 0.997 |
| C48A G80U | 0.242 |
| U65C C86U | 0.516 |
| U23C C84U | 0.831 |
| C62G U65A | 0.166 |
| U60A A70G | 0.77 |
| G1A C44U | 0.0898 |
| C36U G54A | 0.494 |
| C13A U20A | 0.0811 |
| C75U G80A | 0.0573 |
| G17U U37C | 0.612 |
